Assay results taken from patent publication CN113773389A.

Target: T1, 人胸苷激酶1(TK1) (human) (UniProt P04183)
T1 sequence (looked up): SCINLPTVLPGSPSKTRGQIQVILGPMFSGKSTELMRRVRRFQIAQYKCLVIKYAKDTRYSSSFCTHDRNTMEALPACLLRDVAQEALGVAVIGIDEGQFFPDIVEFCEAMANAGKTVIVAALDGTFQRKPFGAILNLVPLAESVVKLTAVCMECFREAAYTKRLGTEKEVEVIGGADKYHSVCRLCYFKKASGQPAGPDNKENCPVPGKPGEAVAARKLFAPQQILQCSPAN
Experiment: cell-based or functional assay

B1: 鼠抗人胸苷激酶1-IgG单克隆抗体(SSTK小鼠杂交瘤细胞株057M) (antibody, V domains shown)
VH: EVKLVESGGGLAQPGGSLRLSCATSGFTFSDYYMNWVRQPPGKAFEWLGFIRNKEYGNTAEYNPSLKGRFTISRDDSQSILYLQMNTLRVEDSAIYYCARDGAFDYWGQGTSLTVSS
VL: DIVMTQSPASLAVSLGQRATISCRASKSVSTSGYSYMHWNQQKPGQPPKLLIYLASNLESGVPARFSGSGSGTDFTLNIHPVEEEDAATYYCQESREFPTVGGGTNLEIK
Q: With B1 as the binder, how does the 肿瘤细胞凋亡频率 (Annexin V-FITC/PI), KATO-Ⅲ, 10μg/ml antibody, 72 h read?
A: 3.49 倍

Q: What about the 肿瘤细胞凋亡频率 (Annexin V-FITC/PI), KATO-Ⅲ(STEM), 10μg/ml antibody, 72 h of the same binder?
A: 2.59 倍

Q: What about the 肿瘤细胞凋亡频率 (Annexin V-FITC/PI), NCI-N87, 10μg/ml antibody, 72 h of the same binder?
A: 1.46 倍

Q: And the 肿瘤细胞凋亡频率 (Annexin V-FITC/PI), NCI-N87(STEM), 10μg/ml antibody, 72 h?
A: 2.21 倍

Q: What about the 肿瘤细胞生存活力 (CCK-8), KATO-Ⅲ, 100μg/ml antibody, 72 h of the same binder?
A: 56.3%

Q: And the 肿瘤细胞生存活力 (CCK-8), KATO-Ⅲ(STEM), 100μg/ml antibody, 72 h?
A: 66.6%

Q: What about the 肿瘤细胞生存活力 (CCK-8), NCI-N87, 100μg/mL antibody, 72 h of the same binder?
A: 85%

Q: And the 肿瘤细胞生存活力 (CCK-8), NCI-N87(STEM), 100μg/mL antibody, 72 h?
A: 66.6%
